Assay results taken from patent publication US20200317768A1 (published 2020).

T1: cynomolgus monkey FcγRIIa1 extracellular domain, His-tagged (cynomolgus monkey)
T1 construct: also called cyno FcγRIIa1; cynoFcgRIIa1; not shown: C-terminal His-tag
T1 chain: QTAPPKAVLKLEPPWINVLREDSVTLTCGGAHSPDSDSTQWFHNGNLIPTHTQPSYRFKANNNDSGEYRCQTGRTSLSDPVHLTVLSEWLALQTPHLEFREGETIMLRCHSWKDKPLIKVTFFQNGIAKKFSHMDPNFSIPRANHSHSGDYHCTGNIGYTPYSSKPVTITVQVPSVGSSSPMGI

T2: cynomolgus monkey FcγRIIIaS extracellular domain, His-tagged (cynomolgus monkey, UniProt Q8SPW2 21-206 at identity 1.00))
T2 construct: also called cyno FcγRIIIaS; cynoFcγRIIIaS; not shown: C-terminal His-tag
T2 chain: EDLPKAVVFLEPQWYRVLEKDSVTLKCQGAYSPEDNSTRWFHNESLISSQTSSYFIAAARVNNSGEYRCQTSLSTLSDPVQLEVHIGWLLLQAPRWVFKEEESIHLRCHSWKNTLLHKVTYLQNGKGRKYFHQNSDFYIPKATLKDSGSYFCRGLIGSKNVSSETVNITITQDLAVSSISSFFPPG

T3: cynomolgus monkey FcγRIIb extracellular domain, His-tagged (cynomolgus monkey)
T3 construct: also called cyno FcγRIIb; cynoFcγRIIb; not shown: C-terminal His-tag
T3 chain: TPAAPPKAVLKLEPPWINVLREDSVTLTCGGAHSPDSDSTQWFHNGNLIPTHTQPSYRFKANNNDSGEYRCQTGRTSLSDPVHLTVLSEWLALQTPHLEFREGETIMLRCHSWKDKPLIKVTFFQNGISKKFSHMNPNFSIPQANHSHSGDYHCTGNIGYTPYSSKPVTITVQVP

T4: human FcγRIIb extracellular domain, His-tagged (human, UniProt P31994 43-217)
T4 construct: also called FcgRIIb (human); not shown: C-terminal His-tag
T4 sequence: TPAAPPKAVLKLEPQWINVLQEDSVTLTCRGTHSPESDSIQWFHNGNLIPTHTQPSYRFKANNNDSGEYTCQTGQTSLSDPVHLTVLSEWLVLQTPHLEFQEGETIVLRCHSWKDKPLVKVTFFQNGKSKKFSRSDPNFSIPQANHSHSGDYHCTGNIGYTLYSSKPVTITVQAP

T5: human FcγRIIaR extracellular domain, His-tagged (human, UniProt P12318 34-217)
T5 construct: also called human FcγRIIa (type R); FcgRIIaR; not shown: C-terminal His-tag
T5 chain: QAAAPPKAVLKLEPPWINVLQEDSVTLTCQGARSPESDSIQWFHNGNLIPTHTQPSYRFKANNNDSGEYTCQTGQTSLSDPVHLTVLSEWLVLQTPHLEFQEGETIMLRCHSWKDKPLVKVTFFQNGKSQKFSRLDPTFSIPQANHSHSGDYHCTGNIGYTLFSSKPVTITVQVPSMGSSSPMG

T6: cynomolgus monkey FcγRIIa3 extracellular domain, His-tagged (cynomolgus monkey)
T6 construct: also called cyno FcγRIIa3; cynoFcgRIIa3; not shown: C-terminal His-tag
T6 chain: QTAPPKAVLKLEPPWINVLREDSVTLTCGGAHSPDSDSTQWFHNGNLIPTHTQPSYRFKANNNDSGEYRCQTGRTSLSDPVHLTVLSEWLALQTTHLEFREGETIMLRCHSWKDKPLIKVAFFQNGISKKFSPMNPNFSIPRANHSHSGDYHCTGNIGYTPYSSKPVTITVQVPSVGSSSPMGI

T7: human FcγRIIaH extracellular domain, His-tagged (human, UniProt P12318 34-217)
T7 construct: also called human FcγRIIa (type H); FcgRIIaH; not shown: C-terminal His-tag
T7 sequence: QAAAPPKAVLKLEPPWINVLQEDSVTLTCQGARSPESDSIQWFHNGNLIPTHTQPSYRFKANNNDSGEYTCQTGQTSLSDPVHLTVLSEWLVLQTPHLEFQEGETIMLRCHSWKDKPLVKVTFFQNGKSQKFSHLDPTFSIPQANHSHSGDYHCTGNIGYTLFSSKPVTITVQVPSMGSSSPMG


Tests used:
Experiment in all cases: SPR (BIACORE); KD of SG1 divided by KD of variant;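 also: relative to parent M103205H795-SG1 carrying the SG1 human heavy chain constant region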
[1] = molecular target: T1, cynomolgus monkey FcγRIIa1 …
[2] = molecular target: T2, cynomolgus monkey FcγRIIIaS …
[3] = molecular target: T3, cynomolgus monkey FcγRIIb extracellular …
[4] = molecular target: T4, human FcγRIIb extracellular domain, …
[5] = molecular target: T5, human FcγRIIaR extracellular domain, …
[6] = molecular target: T6, cynomolgus monkey FcγRIIa3 …
[7] = molecular target: T8, human FcγRIIIaV extracellular domain, His-tagged (human, UniProt P08637 17-208)
T8 construct: also called FcgRIIIaV; not shown: C-terminal His-tag

[8] = molecular target: T7, human FcγRIIaH extracellular domain, …

T8 sequence (P08637 17-208 F176V): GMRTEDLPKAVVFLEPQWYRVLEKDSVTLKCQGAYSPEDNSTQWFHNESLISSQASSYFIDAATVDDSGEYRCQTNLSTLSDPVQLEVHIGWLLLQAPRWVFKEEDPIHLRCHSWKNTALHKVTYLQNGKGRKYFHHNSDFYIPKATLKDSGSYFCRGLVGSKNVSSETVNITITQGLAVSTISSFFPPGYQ

Binder | KD fold (SG1 = 1) [1] [fold] | KD fold (SG1 = 1) [2] [fold] | KD fold (SG1 = 1) [3] [fold] | KD fold (SG1 = 1) [4] [fold] | KD fold (SG1 = 1) [5] [fold] | KD fold (SG1 = 1) [6] [fold] | KD fold (SG1 = 1) [7] [fold] | KD fold (SG1 = 1) [8] [fold]
M103205H795-MY444/M103202L889-SK1 (antibody, human IgG1, kappa, copies: 2 + 2) heavy: QVTLKESGPVLVKPTETLTLTCTVSGIDLSHDDISWVRQAPGKGLEWVGIISYAGSTYYASWAKGRLTISKDTSKNQVVLTMTNMDPVDTATYYCARGVPAYSHGGDLWGQGTLVTVSSASTKGPSVFPLAPSSKSTSGGTAALGCLVKDYFPEPVTVSWNSGALTSGVHTFPAVLQSSGLYSLSSVVTVPSSSLGTQTYICNVNHKPSNTKVDKKVEPKSCDKTHTCPPCPAFELLTGPSVFLFPPKPKDTLMISRTPEVTCVVVDVSDEDPEVKFNWYVDGVEVHNAKTKPREEQYNSTYRVVSVLTVLHQDWLNGKEYKCKVSNKALPKPIEKTISKAKGQPREPQVYTLPPSREEMTKNQVSLTCLVKGFYPSDIAVEWESNGQPENNYKTTPPVLDSDGSFFLYSKLTVDKSRWQQGNVFSCSVMHEALHNHYTQKSLSLSP light: DIVMTQSPATLSLSPGERATLSCTSSQSVYHANWLSWFQQKPGQPPKLLIYWASTLAYGVPSRFSGSGSGTDFTLTISSLQPEDAATYYCAGGYGGGRYAFGQGTKVEIKRTVAAPSVFIFPPSDEQLKSGTASVVCLLNNFYPREAKVQWKVDNALQSGNSQESVTEQDSKDSTYSLSSTLTLSKADYEKHKVYACEVTHQGLSSPVTKSFNRGEC | 2.7 | 0.2 | 6 | 6.2 | 7.9 | 6.9 | 0.3 | 6.3
M103205H795-MY445/M103202L889-SK1 (antibody, human IgG1, kappa, copies: 2 + 2) heavy: QVTLKESGPVLVKPTETLTLTCTVSGIDLSHDDISWVRQAPGKGLEWVGIISYAGSTYYASWAKGRLTISKDTSKNQVVLTMTNMDPVDTATYYCARGVPAYSHGGDLWGQGTLVTVSSASTKGPSVFPLAPSSKSTSGGTAALGCLVKDYFPEPVTVSWNSGALTSGVHTFPAVLQSSGLYSLSSVVTVPSSSLGTQTYICNVNHKPSNTKVDKKVEPKSCDKTHTCPPCPAGELLTGPSVFLFPPKPKDTLMISRTPEVTCVVVDVSDEDPEVKFNWYVDGVEVHNAKTKPREEQYNSTYRVVSVLTVLHQDWLNGKEYKCKVSNKALPKPIEKTISKAKGQPREPQVYTLPPSREEMTKNQVSLTCLVKGFYPSDIAVEWESNGQPENNYKTTPPVLDSDGSFFLYSKLTVDKSRWQQGNVFSCSVMHEALHNHYTQKSLSLSP light: DIVMTQSPATLSLSPGERATLSCTSSQSVYHANWLSWFQQKPGQPPKLLIYWASTLAYGVPSRFSGSGSGTDFTLTISSLQPEDAATYYCAGGYGGGRYAFGQGTKVEIKRTVAAPSVFIFPPSDEQLKSGTASVVCLLNNFYPREAKVQWKVDNALQSGNSQESVTEQDSKDSTYSLSSTLTLSKADYEKHKVYACEVTHQGLSSPVTKSFNRGEC | 0.6 | 0.1 | 1.9 | 1.1 | 1 | 1.2 | 0.1 | 1.2

Further lines, results first:

KD fold (SG1 = 1) [1] [fold] | KD fold (SG1 = 1) [2] [fold] | KD fold (SG1 = 1) [3] [fold] | KD fold (SG1 = 1) [4] [fold] | KD fold (SG1 = 1) [5] [fold] | KD fold (SG1 = 1) [6] [fold] | KD fold (SG1 = 1) [7] [fold] | KD fold (SG1 = 1) [8] [fold] | Binder
3.2 | 0.5 | 7.8 | 10.5 | 11.2 | 11.3 | 0.2 | 7.1 | M103205H795-MY447/M103202L889-SK1 (antibody, human IgG1, kappa, copies: 2 + 2) heavy: QVTLKESGPVLVKPTETLTLTCTVSGIDLSHDDISWVRQAPGKGLEWVGIISYAGSTYYASWAKGRLTISKDTSKNQVVLTMTNMDPVDTATYYCARGVPAYSHGGDLWGQGTLVTVSSASTKGPSVFPLAPSSKSTSGGTAALGCLVKDYFPEPVTVSWNSGALTSGVHTFPAVLQSSGLYSLSSVVTVPSSSLGTQTYICNVNHKPSNTKVDKKVEPKSCDKTHTCPPCPAIELLTGPSVFLFPPKPKDTLMISRTPEVTCVVVDVSDEDPEVKFNWYVDGVEVHNAKTKPREEQYNSTYRVVSVLTVLHQDWLNGKEYKCKVSNKALPKPIEKTISKAKGQPREPQVYTLPPSREEMTKNQVSLTCLVKGFYPSDIAVEWESNGQPENNYKTTPPVLDSDGSFFLYSKLTVDKSRWQQGNVFSCSVMHEALHNHYTQKSLSLSP light: DIVMTQSPATLSLSPGERATLSCTSSQSVYHANWLSWFQQKPGQPPKLLIYWASTLAYGVPSRFSGSGSGTDFTLTISSLQPEDAATYYCAGGYGGGRYAFGQGTKVEIKRTVAAPSVFIFPPSDEQLKSGTASVVCLLNNFYPREAKVQWKVDNALQSGNSQESVTEQDSKDSTYSLSSTLTLSKADYEKHKVYACEVTHQGLSSPVTKSFNRGEC
0.3 | 0.1 | 0.6 | 0.5 | 0.5 | 0.8 | 0.1 | 0.7 | M103205H795-MY448/M103202L889-SK1 (antibody, human IgG1, kappa, copies: 2 + 2) heavy: QVTLKESGPVLVKPTETLTLTCTVSGIDLSHDDISWVRQAPGKGLEWVGIISYAGSTYYASWAKGRLTISKDTSKNQVVLTMTNMDPVDTATYYCARGVPAYSHGGDLWGQGTLVTVSSASTKGPSVFPLAPSSKSTSGGTAALGCLVKDYFPEPVTVSWNSGALTSGVHTFPAVLQSSGLYSLSSVVTVPSSSLGTQTYICNVNHKPSNTKVDKKVEPKSCDKTHTCPPCPAKELLTGPSVFLFPPKPKDTLMISRTPEVTCVVVDVSDEDPEVKFNWYVDGVEVHNAKTKPREEQYNSTYRVVSVLTVLHQDWLNGKEYKCKVSNKALPKPIEKTISKAKGQPREPQVYTLPPSREEMTKNQVSLTCLVKGFYPSDIAVEWESNGQPENNYKTTPPVLDSDGSFFLYSKLTVDKSRWQQGNVFSCSVMHEALHNHYTQKSLSLSP light: DIVMTQSPATLSLSPGERATLSCTSSQSVYHANWLSWFQQKPGQPPKLLIYWASTLAYGVPSRFSGSGSGTDFTLTISSLQPEDAATYYCAGGYGGGRYAFGQGTKVEIKRTVAAPSVFIFPPSDEQLKSGTASVVCLLNNFYPREAKVQWKVDNALQSGNSQESVTEQDSKDSTYSLSSTLTLSKADYEKHKVYACEVTHQGLSSPVTKSFNRGEC
1.3 | 0.1 | 2.6 | 1.9 | 2.3 | 3.6 | 0.1 | 2.7 | M103205H795-MY446/M103202L889-SK1 (antibody, human IgG1, kappa, copies: 2 + 2) heavy: QVTLKESGPVLVKPTETLTLTCTVSGIDLSHDDISWVRQAPGKGLEWVGIISYAGSTYYASWAKGRLTISKDTSKNQVVLTMTNMDPVDTATYYCARGVPAYSHGGDLWGQGTLVTVSSASTKGPSVFPLAPSSKSTSGGTAALGCLVKDYFPEPVTVSWNSGALTSGVHTFPAVLQSSGLYSLSSVVTVPSSSLGTQTYICNVNHKPSNTKVDKKVEPKSCDKTHTCPPCPAHELLTGPSVFLFPPKPKDTLMISRTPEVTCVVVDVSDEDPEVKFNWYVDGVEVHNAKTKPREEQYNSTYRVVSVLTVLHQDWLNGKEYKCKVSNKALPKPIEKTISKAKGQPREPQVYTLPPSREEMTKNQVSLTCLVKGFYPSDIAVEWESNGQPENNYKTTPPVLDSDGSFFLYSKLTVDKSRWQQGNVFSCSVMHEALHNHYTQKSLSLSP light: DIVMTQSPATLSLSPGERATLSCTSSQSVYHANWLSWFQQKPGQPPKLLIYWASTLAYGVPSRFSGSGSGTDFTLTISSLQPEDAATYYCAGGYGGGRYAFGQGTKVEIKRTVAAPSVFIFPPSDEQLKSGTASVVCLLNNFYPREAKVQWKVDNALQSGNSQESVTEQDSKDSTYSLSSTLTLSKADYEKHKVYACEVTHQGLSSPVTKSFNRGEC
